In patent US9206246B2, “Heparin/heparan sulfate-dependent inhibitors of activated protein C and uses thereof in treating hemophilic disorders” (Academia Sinica, priority 2012, dated 2015):

What was measured:
[1] = biological target: T1, human activated protein C (Homo sapiens, UniProt P04070); experiment: Inhibition of APC amidolytic activity (Spectrozyme PCa chromogenic substrate); assay type: biochemical
T1 construct: purchased Haematologic Technologies
Experimental: B: Dose-response curves of APC (10 nM) inhibition by DrKIn-I in the absence (◯) and presence (●) of 0.1 U/ml heparin. C: To determine the minimum concentration of heparin required for the potentiation APC inhibition, the activity of APC (20 nM) was measured after the addition of DrKIn-I (20 nM) and varying concentrations of heparin (0-1000 mU/ml). D: To assess the ability of heparan sulfate and the minimum length of heparan sulfate required to potentiate DrKIn-I-mediated APC inhibition, the amidolytic activity of APC was determined in the presence of DrKIn-I (20 nM) and different lengths of heparan sulfate chains (10 μg/ml each). E, Time course of FVa inactivation by APC (1 nM) was assessed in the absence (●) or presence (▪) of 5 nM DrKIn-I, or in the presence of 5 nM DrKIn-I supplemented with 0.1 U/ml heparin (▴), as described in “Materials and methods”. F, The effect of DrKIn-I (0-250 nM) and/or heparin (0.1 U/ml) on APC-mediated FVa inactivation was determined after 10 minutes of incubation at 37° C. with APC (5 nM). Results shown are means±SD of three experiments.
All inhibition assays were performed in 96-wells microtiter plates in 25 mM Tris-HCl (pH 7.4), 150 mM NaCl, 2.5 mM CaCl2 and 5 mg/ml BSA. For comparison between DrKIn-I and DrKIn-II, the amidolytic activity of 10 nM APC, with or without 0.1 U/ml heparin, was assayed in the presence or absence of equal molar concentrations of DrKIn-I or DrKIn-II. Immediately after the addition of APC, Spectrozyme PCa was added and the rates of p-nitroaniline release were monitored at 405 nm for 10 minutes at 37° C. For dose response curves, APC was mixed with different concentrations of DrKIn-I in the presence or absence of heparin. The final concentrations were as follows: APC (10 nM), heparin (0.1 U/ml) and DrKIn-I (0-100 nM in the presence of heparin and 0-12800 nM in the absence of heparin). Dose-response curves were fitted using GraphPad Prism (GraphPad Software). In other inhibition experiments, varying concentrations of heparin ([…]) or different lengths of heparan sulfate chains (10 μg/ml) were added to equimolar concentrations of APC and DrKIn-I (20 nM each). In all the inhibition experiments, Spectrozyme PCa was added to a final concentration of 0.2 mM. Changes in absorbance were measured using SpectraMax M2^e Microplate Reader (Molecular Devices).

[2] = Heparin binding assay (HiTrap Heparin column, NaCl gradient); details: data not shown
Experimental: A: 70 μg of DrKIn-I in 0.1 ml equilibrating buffer (20 mM Tris-HCl, pH 8.0) was applied to a 5 ml HiTrap Heparin column and eluted with a 50 ml gradient from 0.0-1.0 M NaCl. The salt concentration corresponding to the elution peak was determined to be 0.95 M. B, Binding of DrKIn-I (0.78, 1.56, 2.34, 3.13, 4.68 and 6.25 nM) to immobilized APC was assessed in buffer containing 10 mM HEPES, 0.15 M NaCl, 3 mM EDTA and 0.05% P20 at a flow rate of 60 μl/min at 25° C. […] The thin lines represent the global fit to the response data. […] Results shown are means±SD of three experiments. Representative binding traces are shown.

[3] = biological target: T2, APC (Homo sapiens, UniProt P04070); experiment: APC inhibition by recombinant DrKIn-I wild type and mutants (S-2366 chromogenic substrate); assay type: biochemical; details: APC 20 nM, S-2366 0.4 mM
Source text: A: amino acid alignment of the C-terminal regions of the wild-type DrKIn-I peptide and three mutants, which were generated by either deleting or mutating (alanine substitution; denoted by bold letters) one or both of the C-terminus heparin binding motifs. Underlined amino acids are the putative heparin binding motifs. B: SDS-PAGE analysis of the wild-type and mutant DrKIn-I peptides. Wild-type: SEQ ID NO:3. Mutant 1: SEQ ID NO:4. Mutant 2: SEQ ID NO:5. Mutant 3: SEQ ID NO:6. C-D: Inhibitory effect of DrKIn-I wild type (●), mutant 1 (▴), mutant 2 (▾) and mutant 3 (▪) on APC (20 nM) in the presence (C) or absence (D) of heparan sulfate (10 μg/ml). Activity of APC without the addition of inhibitors was considered as 100%.
The wild-type DrKIn-I and the mutants at various concentrations were mixed with APC (20 nM) in the presence of heparin or heparan sulfate (10 μg/ml). After 3 minutes of incubation, a chromogenic substrate S-2366 (0.4 mM) was added and the rate of p-nitroaniline release was monitored at 405 nm for 10 minutes at 37° C. […] On the other hand, Mutants 1 and 2 inhibit APC in the presence of heparin.
Target sequence in this assay (P04070 212-450 limits assumed): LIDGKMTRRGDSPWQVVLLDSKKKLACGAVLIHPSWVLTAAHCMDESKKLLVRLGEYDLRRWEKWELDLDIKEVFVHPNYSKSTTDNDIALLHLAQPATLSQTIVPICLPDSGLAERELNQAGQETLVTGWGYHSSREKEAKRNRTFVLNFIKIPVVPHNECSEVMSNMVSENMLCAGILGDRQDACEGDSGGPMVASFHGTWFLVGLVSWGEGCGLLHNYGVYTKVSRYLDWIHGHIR
Target sequence in this assay (P04070 43-197 limits assumed): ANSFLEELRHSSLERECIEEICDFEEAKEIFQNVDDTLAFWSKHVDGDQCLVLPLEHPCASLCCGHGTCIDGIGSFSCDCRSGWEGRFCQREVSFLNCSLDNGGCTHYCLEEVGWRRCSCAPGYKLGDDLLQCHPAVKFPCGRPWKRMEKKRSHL

[4] = test system: plasmin; experiment: Euglobulin clot lysis assay; assay type: biochemical
[5] = biological target: T2, APC; details: in the absence of heparin; cited from earlier work
Target sequence in this assay (P04070 212-461 limits assumed): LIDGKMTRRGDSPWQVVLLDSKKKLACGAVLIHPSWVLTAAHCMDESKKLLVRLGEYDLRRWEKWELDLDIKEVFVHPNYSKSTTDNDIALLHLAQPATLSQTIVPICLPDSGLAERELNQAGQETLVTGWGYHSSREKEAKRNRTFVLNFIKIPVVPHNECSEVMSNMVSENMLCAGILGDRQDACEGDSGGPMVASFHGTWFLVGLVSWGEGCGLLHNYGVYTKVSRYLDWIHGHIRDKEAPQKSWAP
Target sequence in this assay (P04070 43-197 limits assumed): as the sequence (P04070 43-197 limits assumed) above

T1 sequence (P04070 212-450 limits assumed): as the sequence (P04070 212-450 limits assumed) above
T1 sequence (P04070 43-197 limits assumed): as the sequence (P04070 43-197 limits assumed) above

Question: For “DrKIn-II (HDRPTFCNLAPESGRCRAHLRRIYYNLESNKCEVFFYGGCGGNDNNFSTWDECRHTCVGK)”, which “inhibitory activity against APC in the absence of heparin” value ([1]; 10 nM inhibitor, 10 nM APC, no heparin) is on record?
Answer: Its value is “little inhibitory activity against APC”.

Question: What about the “decrease of APC activity (inhibition of APC amidolytic activity)” value ([1]; equimolar inhibitor and APC (10 nM each), 0.1 U/ml heparin, Spectrozyme PCa 0.2 mM) of the same molecule?
Answer: Its value is ~20%.

Question: What about the “inhibitory activity against APC” value ([1]; summary statement in discussion) of the same molecule?
Answer: The value was “no inhibitory activity against APC”.

Question: What about the “affinity towards heparin column” value [2] of the same molecule?
Answer: Its value is “no affinity towards heparin column”.

Question: For “Mutant 1: Recombinant DrKIn-I mutant R50A/K51A/K52A lacking one of the two heparin binding sites (CGGNDNNFETAAACRQTCGAPRKGRPT)”, which “APC inhibition in the presence of heparin” value [3] is on record?
Answer: Its value is “inhibit APC”.

Question: With “Mutant 2: Recombinant DrKIn-I deletion mutant Δ60-66 lacking one of the two heparin binding sites (CGGNDNNFETRKKCRQTCGA)” as the molecule, how does the “APC inhibition in the presence of heparin” value [3] read?
Answer: The value was “inhibit APC”.

Question: For aprotinin [reference compound], which “prolongation of euglobulin clot lysis time” value ([4]; 20 nM inhibitor) is on record?
Answer: The value was ~9 h.

Question: What about the “prolongation of euglobulin clot lysis time” value ([4]; 100 nM inhibitor) of the same molecule?
Answer: The value was “more than 16 hours”.

Question: Which “effect of heparin alone on APC activity” value ([1]; heparin alone 0.1 U/ml, regardless of the type of substrate (Spectrozyme PCa or FVa)) does the source give for heparin [reference compound] here?
Answer: The value was “did not alter the activity of APC”.

B1: protein C inhibitor: plasma APC inhibitor belonging to the serpin family (protein, UniProt P05154 26-406, looked up)
Plasma serine protease …: EMKKRVEDLHVGATVAPSSRRDFTFDLYRALASAAPSQSIFFSPVSISMSLAMLSLGAGSSTKMQILEGLGLNLQKSSEKELHRGFQQLLQELNQPRDGFQLSLGNALFTDLVVDLQDTFVSAMKTLYLADTFPTNFRDSAGAMKQINDYVAKQTKGKIVDLLKNLDSNAVVIMVNYIFFKAKWETSFNHKGTQEQDFYVTSETVVRVPMMSREDQYHYLLDRNLSCRVVGVPYQGNATALFILPSEGKMQQVENGLSEKTLRKWLKMFKKRQLELYLPKFSIEGSYQLEKVLPSLGISNVFTSHADLSGISNHSNIQVSEMVHKAVVEVDESGTRAAAATGTIFTFRSARLNSQRLVFNRPFLMFIVDNNILFLGKVNRP
Question: For B1, which “second order rate constant of APC inhibition” value [5] is on record?
Answer: Its value is 2500 M⁻¹ s⁻¹.
